Paper PMC6160459 (Scientific Reports, 2018)

Molecular target: T1, α4 integrin (CD49d) on JeKo-1 cells (Homo sapiens, endogenous on JeKo-1 cells, UniProt P13612)
T1 construct: integrin alpha-4 (CD49d); also called α4 chain of α4β1 integrin (VLA-4) and α4β7 integrin (LPAM-1); source: endogenous, on JeKo-1 cells
Experiment: flow cytometry on cells; Ntz-01 premixed with natalizumab 1 h on ice in 5% FBS/DPBS/0.05% NaN3, then CD49d+ JeKo-1 cells 20 m on ice; cell-bound natalizumab detected with anti-human IgG4 Fc Alexa Fluor 647
Conditions: one partner purified

binding result: binds
B1: Natalizumab (antibody, V domains shown)
VH: QVQLVQSGAEVKKPGASVKVSCKASGFNIKDTYIHWVRQAPGQRLEWMGRIDPANGYTKYDPKFQGRVTITADTSASTAYMELSSLRSEDTAVYYCAREGYYGNYGVYAMDYWGQGTLVTVSS
VL: DIQMTQSPSSLSASVGDRVTITCKTSQDINKYMAWYQQTPGKAPRLLIHYTSALQPGIPSRFSGSGSGRDYTFTISSLQPEDIATYYCLQYDNLWTFGQGTKVEIK
notes: humanized heavy-chain variable region; light chain; IgG4; also called Tysabri; source: obtained from the UCSD Moores Cancer Center Pharmacy
